In paper PMC10747430, “^99mTc-Labeled Cyclic Peptide Targeting PD-L1 as a Novel Nuclear Imaging Probe” (Pharmaceutics, 2023):

Tests used:
[1] = test system: HCC827 cells (PD-L1 positive); experiment: Cellular uptake and internalization, HCC827; format: cell-based, human; conditions: HCC827, 1 × 10^6 cells/tube, 7.4 kBq, 37 °C, 1 h, n = 3
Procedure: Human colorectal cancer HCT116 (PD-L1 positive: 45.1 nTPM), human lung cancer HCC827 (PD-L1 positive: 27.1 nTPM), and […] C6 glioma cells (PD-L1 negative control) were obtained from ATCC (Atlanta, GA, USA). FBS, RPMI, and cell culture medium were obtained from Bovine and Biology (CDMX, MX). Cells were cultured in RPMI medium (5% CO2; 100 µg/mL penicillin, 15% fetal bovine serum, and 100 µg/mL streptomycin; 37 °C).
Cells diluted in phosphate-buffered saline (PBS) (pH 7.4) (1 × 10^6 cells/tube) received three different treatments: (a) [^99mTc]Tc-iPD-L1 (7.4 kBq) (n = 3), (b) and [^99mTc]Tc-WL12 (7.4 kBq) (n = 3), and (c) ^99mTcO4Na (7.4 kBq) (n = 3). Cells were incubated with each treatment at 37 °C for one hour. After incubation, tubes were measured in a NaI(Tl) detector (NML Inc., Houston, TX, USA) to establish the initial or first activity (100%). The tubes were spun at 500 g for 10 min, rinsed once with PBS, and spun once more. The liquid was removed, and the activity in the button was determined, indicating the percentage of cellular uptake (surface uptake) regarding the initial or first activity. Acetic acid/0.5 M NaCl was added, the tubes were centrifuged, and the activity was measured. The liquid was removed, and activity in button activity represented the percentage of activity internalized by cells relative to uptake activity (internalization fraction of surface uptake). […]

[2] = Stability in human serum; format: in vitro ADME; conditions: human serum (diluted 5x), 37 °C, n = 3
Procedure: (§1) The stability of [^99mTc]Tc-iPD-L1 and [^99mTc]Tc-WL12 was evaluated by diluting the samples in human serum (5x). The radiopharmaceuticals (n = 3) were heated at 37 °C and analyzed at 0.5, 3, and 24 h for radiochemical purity by size-exclusion radio-HPLC (ProteinPak 300SW, Waters Corporation, Milford, CT, USA).
(§2) The radioactivity from [^99mTc]Tc-iPD-L1 bound to serum proteins was 1.3 ± 0.8% at 30 min, 3.2 ± 1.3% at 3 h, and 7.6 ± 1.9% at 24 h. High radiochemical stability (>90% at 24 h) was also observed. In the case of [^99mTc]Tc-WL12, protein binding was 1.0 ± 0.4% at 30 min, 3.3 ± 0.9% at 3 h, and 6.0 ± 1.3% at 24 h, with a radiochemical purity of >90% at 24 h. Therefore, there was no significant difference […] in protein binding and serum stability between the radiotracers.

[3] = Serum protein binding; format: in vitro ADME; conditions: human serum (diluted 5x), 37 °C, size-exclusion radio-HPLC, n = 3
Procedure: as §1, §2

[4] = test system: HCC827 lung cancer tumors; experiment: Biodistribution in mice bearing HCC827 tumors; format: in vivo, mouse; conditions: mean over 1, 3 and 24 h
Procedure: All animal procedures were performed following the Institutional Animal Care and Use Committee requirements under an approved protocol (No. 09-2018-2022) and the Ethical Regulations for the Handling of Laboratory Animals (NOM-062-ZOO-1999). Male Nu/Nu (CINVESTAV, I.PN., Mexico City, Mexico) mice, 6–8 weeks of age, were maintained in an aseptic barrier environment. Mice were inoculated by subcutaneous injection of 1 × 10^6 HCC827 cells/0.1 mL PBS into the upper back. Injection sites were monitored periodically for tumor progression. On day ten after tumor cell inoculation, animals were injected with 18.5 MBq (50 µL) of [^99mTc]Tc-iPD-L1 or 18.5 MBq (50 µL) of [^99mTc]Tc-WL12 by tail vein injection. The animals were sacrificed at 1, 3, and 24 h (n = 3). Kidneys, lungs, heart, liver, spleen, pancreas, small intestine, stomach, muscle, and blood and tumor samples were dissected. Radioactivity was determined in a sodium iodide detector. The results were stated as % injected dose/g.
After 24 h, the activity in tumors was 3.21 ± 0.45 %ID/g ([^99mTc]Tc-WL12) and 5.65 ± 0.98 %ID/g ([^99mTc]Tc-iPD-L1). […] This behavior is related to the higher lipophilicity of [^99mTc]Tc-iPD-L1 compared to [^99mTc]Tc-WL12.

CCCC[C@H]1C(=O)N(C)[C@@H](CCCC)C(=O)N[C@@H](CCCNC(=O)c2ccc(NN)nc2)C(=O)N[C@H](C(=O)NCC(N)=O)CSCC(=O)N[C@@H](Cc2ccc(O)cc2)C(=O)N(C)[C@@H](C)C(=O)N[C@@H](CC(N)=O)C(=O)N2CCC[C@H]2C(=O)N[C@@H](Cc2c[nH]cn2)C(=O)N[C@@H](CC(C)C)C(=O)N2C[C@H](O)C[C@H]2C(=O)N[C@@H](Cc2c[nH]c3ccccc23)C(=O)N[C@@H](CO)C(=O)N[C@@H](Cc2cn(C)c3ccccc23)C(=O)N1C [[^99mTc]Tc-WL12, metal not drawn]
uptake and internalization compared to C6 cells (PD-L1 negative) [1]: significantly higher | stability in human serum ([2]; 30 min, 3 h and 24 h, size-exclusion radio-HPLC): remained stable | remaining at 24 h ([2]; 24 h, size-exclusion radio-HPLC (ProteinPak 300SW), read-out: radiochemical stability / radiochemical purity in human serum at 24 h): > 90% | radioactivity bound to serum proteins at 30 min ([3]; 30 min): 1.0 ± 0.4% | radioactivity bound to serum proteins at 3 h ([3]; 3 h): 3.3 ± 0.9% | radioactivity bound to serum proteins at 24 h ([3]; 24 h): 6.0 ± 1.3% | mean percentage of tumor uptake over time (two-way ANOVA) [4]: 6.617
